Data taken from patent publication US20240400675A1 (published 2024).
Positions count from the first letter of the chain named. Like-named read-outs stand apart in the source and are kept apart here. Blank lines part the entries; values can stand above or below the binder they belong to.

What was measured:
Assay in all cases: flow cytometry, HEK293E cells
[1] = molecular target: T1, human CLDN6 (UniProt P56747 1-220)
T1 chain: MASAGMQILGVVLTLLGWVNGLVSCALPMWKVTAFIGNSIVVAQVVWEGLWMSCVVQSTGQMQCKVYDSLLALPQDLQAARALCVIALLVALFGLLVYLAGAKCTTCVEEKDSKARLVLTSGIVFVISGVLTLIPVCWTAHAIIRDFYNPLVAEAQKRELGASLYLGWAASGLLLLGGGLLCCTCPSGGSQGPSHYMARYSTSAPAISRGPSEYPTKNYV

[2] = molecular target: T2, mouse CLDN6 (mouse, UniProt Q9Z262 1-219)
T2 chain: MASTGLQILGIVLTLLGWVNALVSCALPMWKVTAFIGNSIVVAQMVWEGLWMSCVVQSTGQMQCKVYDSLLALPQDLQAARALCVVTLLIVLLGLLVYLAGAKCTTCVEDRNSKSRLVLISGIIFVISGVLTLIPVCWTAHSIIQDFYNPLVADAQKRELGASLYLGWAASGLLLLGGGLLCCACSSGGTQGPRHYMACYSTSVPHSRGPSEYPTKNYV

[3] = molecular target: T3, cyno CLDN6
T3 chain: T1 chain with Q191R

[4] = molecular target: T4, human CLDN9 (UniProt O95484 1-217)
T4 chain: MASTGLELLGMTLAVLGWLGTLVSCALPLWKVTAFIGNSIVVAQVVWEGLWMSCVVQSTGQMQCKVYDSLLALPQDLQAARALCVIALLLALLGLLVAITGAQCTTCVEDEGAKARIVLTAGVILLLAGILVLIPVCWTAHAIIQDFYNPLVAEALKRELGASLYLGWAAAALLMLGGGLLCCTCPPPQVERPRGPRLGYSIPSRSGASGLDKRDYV

[5] = molecular target: T1, human CLDN6
[6] = molecular target: T5, CLDN6 I143V isotype (UniProt P56747 1-220)
T5 chain: T1 chain with I143V

[7] = molecular target: T4, human CLDN9
[8] = molecular target: T1, human CLDN6
[9] = molecular target: T5, CLDN6 I143V isotype
[10] = molecular target: T1, human CLDN6
[11] = molecular target: T2, mouse CLDN6
[12] = molecular target: T3, cyno CLDN6

- EC50 [1]: 3.48 µg/mL
- EC50 [2]: 12 µg/mL
- EC50 [3]: 5.65 µg/mL
- EC50 [4]: 78.8 µg/mL
- EC50 [5]: 6.49 µg/mL
- EC50 [6]: 5.58 µg/mL
B1: XENP34229 (C6-30_H1L1 x CD3 bsAb in the 1+1 Fab-scFv-Fc format) (bispecific antibody)
heavy: QVQLVQSGAEVKKPGASVKVSCKTSGYTFTEYTMHWVRQAPGQSLEWMGGIDPNNGNTHYNQKFQGRVTITVDKSASTAYMELSSLRSEDTAVYYCARIYYFGRLYFDFWGAGTLVTVSSASTKGPSVFPLAPSSKSTSGGTAALGCLVKDYFPEPVTVSWNSGALTSGVHTFPAVLQSSGLYSLSSVVTVPSSSLGTQTYICNVNHKPSDTKVDKKVEPKSCDKTHTCPPCPAPPVAGPSVFLFPPKPKDTLMISRTPEVTCVVVDVKHEDPEVKFNWYVDGVEVHNAKTKPREEEYNSTYRVVSVLTVLHQDWLNGKEYKCKVSNKALPAPIEKTISKAKGQPREPQVYTLPPSREEMTKNQVSLTCDVSGFYPSDIAVEWESDGQPENNYKTTPPVLDSDGSFFLYSKLTVDKSRWEQGDVFSCSVMHEALHNHYTQKSLSLSPGK
scFv-Fc: QAVVTQEPSLTVSPGGTVTLTCGSSTGAVTTSNYANWVQQKPGKSPRGLIGGTNKRAPGVPARFSGSLLGGKAALTISGAQPEDEADYYCALWYSNHWVFGGGTKLTVLGKPGSGKPGSGKPGSGKPGSEVQLVESGGGLVQPGGSLRLSCAASGFTFSTYAMNWVRQAPGKGLEWVGRIRSKYNNYATYYADSVKGRFTISRDDSKNTLYLQMNSLRAEDTAVYYCVRHGNFGDSYVSWFAYWGQGTLVTVSSEPKSSDKTHTCPPCPAPPVAGPSVFLFPPKPKDTLMISRTPEVTCVVVDVKHEDPEVKFNWYVDGVEVHNAKTKPREEQYNSTYRVVSVLTVLHQDWLNGKEYKCKVSNKALPAPIEKTISKAKGQPREPQVYTLPPSREQMTKNQVKLTCLVKGFYPSDIAVEWESNGQPENNYKTTPPVLDSDGSFFLYSKLTVDKSRWQQGNVFSCSVMHEALHNHYTQKSLSLSPGK
light: not shown

- EC50 [7]: 137 µg/mL
- EC50 [8]: 20.6 µg/mL
- EC50 [9]: 12.9 µg/mL
- EC50 [10]: 2.38 µg/mL
- EC50 [11]: 6.71 µg/mL
- EC50 [12]: 3.19 µg/mL
B2: XENP34637 (C6-30_H2L1 x CD3 bsAb in the 1+1 Fab-scFv-Fc format) (bispecific antibody)
heavy: EVQLVQSGAEVKKPGESLRISCKTSGYTFTEYTMHWVRQMPGKSLEWMGGIDPNNGNTHYNQKFQGHVTISVDKSISTAYLQWSSLKASDTAMYYCARIYYFGRLYFDFWGAGTLVTVSSASTKGPSVFPLAPSSKSTSGGTAALGCLVKDYFPEPVTVSWNSGALTSGVHTFPAVLQSSGLYSLSSVVTVPSSSLGTQTYICNVNHKPSDTKVDKKVEPKSCDKTHTCPPCPAPPVAGPSVFLFPPKPKDTLMISRTPEVTCVVVDVKHEDPEVKFNWYVDGVEVHNAKTKPREEEYNSTYRVVSVLTVLHQDWLNGKEYKCKVSNKALPAPIEKTISKAKGQPREPQVYTLPPSREEMTKNQVSLTCDVSGFYPSDIAVEWESDGQPENNYKTTPPVLDSDGSFFLYSKLTVDKSRWEQGDVFSCSVMHEALHNHYTQKSLSLSPGK
scFv-Fc: not shown
light: not shown

- EC50 [7]: 11.2 µg/mL
- EC50 [8]: 0.435 µg/mL
- EC50 [9]: 0.2 µg/mL
- EC50 [10]: 0.244 µg/mL
- EC50 [11]: 0.588 µg/mL
- EC50 [12]: 0.267 µg/mL
B3: XENP34638 (C6-30_H2L1 x CD3 bsAb in the 2+1 Fab2-scFv-Fc format) (bispecific antibody)
heavy 1: B2 heavy
heavy 2: EVQLVQSGAEVKKPGESLRISCKTSGYTFTEYTMHWVRQMPGKSLEWMGGIDPNNGNTHYNQKFQGHVTISVDKSISTAYLQWSSLKASDTAMYYCARIYYFGRLYFDFWGAGTLVTVSSASTKGPSVFPLAPSSKSTSGGTAALGCLVKDYFPEPVTVSWNSGALTSGVHTFPAVLQSSGLYSLSSVVTVPSSSLGTQTYICNVNHKPSNTKVDKKVEPKSCGGGGSGGGGSQAVVTQEPSLTVSPGGTVTLTCGSSTGAVTTSNYANWVQQKPGKSPRGLIGGTNKRAPGVPARFSGSLLGGKAALTISGAQPEDEADYYCALWYSNHWVFGGGTKLTVLGKPGSGKPGSGKPGSGKPGSEVQLVESGGGLVQPGGSLRLSCAASGFTFSTYAMNWVRQAPGKGLEWVGRIRSKYNNYATYYADSVKGRFTISRDDSKNTLYLQMNSLRAEDTAVYYCVRHGNFGDSYVSWFAYWGQGTLVTVSSGGGGSGGGGSKTHTCPPCPAPPVAGPSVFLFPPKPKDTLMISRTPEVTCVVVDVKHEDPEVKFNWYVDGVEVHNAKTKPREEQYNSTYRVVSVLTVLHQDWLNGKEYKCKVSNKALPAPIEKTISKAKGQPREPQVYTLPPSREQMTKNQVKLTCLVKGFYPSDIAVEWESNGQPENNYKTTPPVLDSDGSFFLYSKLTVDKSRWQQGNVFSCSVMHEALHNHYTQKSLSLSPGK
light: not shown
